Patent US20240033354A1 (University of California, published 2024)

What was measured:
[1] = molecular target: T1, TcdB1 holotoxin (recombinant full-length TcdB1, VPI10463 strain, expressed in Bacillus megaterium) (Clostridium difficile, VPI10463 strain, UniProt P18177 1-2366); test: two-step pull-down, first step (FIG. 15C)
T1 construct: also called TcdB1 (1-2366)-holotoxin

[2] = molecular target: T1, TcdB1 holotoxin (recombinant …)
[3] = molecular target: TcdB2 (recombinant full-length, R20292 strain [sic], expressed in Bacillus megaterium) (Clostridium difficile, R20291 strain …, UniProt P18177 1-2366)

B1: CSPG4^mini (CSPG4 residues 30-764) (receptor)
chain: ASFFGENHLEVPVATALTDIDLQLQFSTSQPEALLLLAAGPADHLLLQLYSGRLQVRLVLGQEELRLQTPAETLLSDSIPHTVVLTVVEGWATLSVDGFLNASSAVPGAPLEVPYGLFVGGTGTLGLPYLRGTSRPLRGCLHAATLNGRSLLRPLTPDVHEGCAEEFSASDDVALGFSGPHSLAAFPAWGTQDEGTLEFTLTTQSRQAPLAFQAGGRRGDFIYVDIFEGHLRAVVEKGQGTVLLHNSVPVADGQPHEVSVHINAHRLEISVDQYPTHTSNRGVLSYLEPRGSLLLGGLDAEASRHLQEHRLGLTPEATNASLLGCMEDLSVNGQRRGLREALLTRNMAAGCRLEEEEYEDDAYGHYEAFSTLAPEAWPAMELPEPCVPEPGLPPVFANFTQLLTISPLVVAEGGTAWLEWRHVQPTLDLMEAELRKSQVLFSVTRGARHGELELDIPGAQARKMFTLLDVVNRKARFIHDGSEDTSDQLVLEVSVTARVPMPSCLRRGQTYLLPIQVNPVNDPPHIIFPHGSLMVILEHTQKPLGPEVFQAYDPDSACEGLTFQVLGTSSGLPVERRDQPGEPATEFSCRELEAGSLVYVHRGGPAQDLTFRVSDGLQASPPATLKVVAIRPAIQIHRSTGLRLAQGSAMPILPANLSVETNAVGQDVSVLFRVTGALQFGELQKQGAGGVEGAEWWATQAFHQRDVEQGRVRYLSTDPQHHAYDTVENLALEVQ
- binding result [1]: binds

B2: Repeat1-Fc (CSPG4 Repeat1, residues 410-551, fused to the N-terminus of the Fc fragment of a human IgG1) (Fc fusion)
chain: ELPEPCVPEPGLPPVFANFTQLLTISPLVVAEGGTAWLEWRHVQPTLDLMEAELRKSQVLFSVTRGARHGELELDIPGAQARKMFTLLDVVNRKARFIHDGSEDTSDQLVLEVSVTARVPMPSCLRRGQTYLLPIQVNPVND
- Kd [2]: ~15.2 nM
- koff [2]: ~0.000108 s⁻¹
- kon [2]: ~7060 M⁻¹ s⁻¹
- Kd [3]: ~5.4 nM
- koff [3]: ~4.63e-05 s⁻¹
- kon [3]: ~8340 M⁻¹ s⁻¹
